Here are results for one molecule from paper PMC4335501 (2015).

For the test, the target named is HAdV-52 long fiber knob (human adenovirus type 52 (HAdV-52)). As to the kind of experiment: SPR. Background: SPR reads the build-up and loss of mass on a sensor chip optically.

B1: Recombinant human CAR (CXADR Fc chimera; full length extracellular D1D2 domain) (Fc fusion)
chain: LSITTPEEMIEKAKGETAYLPCKFTLSPEDQGPLDIEWLISPADNQKVDQVIILYSGDKIYDDYYPDLKGRVHFTSNDLKSGDASINVTNLQLSDIGTYQCKVKKAPGVANKKIHLVVLVKPSGARCYVDGSEEIGSDFKIKCEPKEGSLPLQYEWQKLSDSQKMPTSWLAEMTSSVISVKNASSEYSGTYSCTVRNRVGSDQCLLRLNVVPPSNKAG
By koff is commonly meant the rate constant with which the complex falls apart. Read a high koff as a short-lived complex. The molecule B1 registered a koff of 0.00221 s⁻¹.
